Measured values taken from the supplement of paper PMC9170038.

System: MS2 coat protein
Test: apparent KD of MS2 coat protein; designed switch direction (-1 OFF switch, 1 ON switch): -1; higher = weaker reporter binding
Method in brief: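 SNAP-549-labelled MS2 coat protein was titrated, doubling from 0.7 or 1.5 nM to 3 µM, over designed RNA switches transcribed on Illumina chips by stalled E. coli RNA polymerase. Runs were done without input, with 200 uM small-molecule ligand, or with an oligonucleotide input. Apparent KD is the per-design median over clusters of curve-fitted normalised fluorescence.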

[1] = Eterna round: R95, input ligand: microRNA oligo, concentration not stated
[2] = Eterna round: R95, input ligand: FMN 200 uM
[3] = Eterna round: R95, input ligand: none

Sequence	apparent KD of MS2 coat protein [1] [nM]	apparent KD of MS2 coat protein (input ligand: FMN 200 uM) [nM]	apparent KD of MS2 coat protein (input ligand: none) [nM]	other results
GUUACACAUGAGGAUCACCCAUGUAAGGAUAUGCUGCGGUCGCGCUGACGUGACUGCAGCAGAAGGUACAAUUG (puzzle: Exclusion 1)	67.6	–	–	–
AGUUGGCGAGGAUAUACAUGAGGAUCACCCAUGUGAAAUAUAAUAGUGAGGAAGAAAAGUAGAAGGCGCUGACA [Mat - Exclusion 3 - Mod of Salish D42] (puzzle: Exclusion 3)	42.7	–	–	–
UUUUUUUUGCUGGUUUUUUACAUGAGGAUCACCCAUGUCCUCUGCUUGUCUUGUGUUGUGCUGGUUUCUGGUGCGGC [Revision to "-18.4 -40.2 kcal, A 8%"by Sellena] (Eterna round: R97, puzzle: Sensor, turn-off variant 1)	–	428	1210	–
GCAGUUCGAGUUAGGAUAUGAUGUUAAUUCGGAUAUCAGAAGGAACUUGAGGAUCACCCAAGUAUAGAUGUUGU [JR_BMEx4_Sub061] (Eterna round: R97, puzzle: Brourd's mod of Exclusion 4)	–	31.3	19.8	–
CGAUGAGGAGUGAGGAUAUCGUGUUCGAAAGAACGUGAGAAGGCACAUGAGGAUCACCCAUGUGAACCUUGUCG [Omei Ex4B A10] (Eterna round: R97, puzzle: Brourd's mod of Exclusion 4)	–	22.5	15.8	–
AAGAAGAAACAAGCUUUUUGCUCGUCUUAUAGUGACGCAACAUGAGGAUCACCCAUGUAUAGGAUGAGGGUGGAUAG [JR_SV3TOV2_Sub046] (puzzle: Sensor v3, turn-off variant 2)	324	–	–	apparent KD of MS2 coat protein [2]: 76.9 nM; apparent KD of MS2 coat protein [3]: 72 nM
CGAGCUCAUGUGAGGAUAUACCUAUGGAUACAUAGGUAGAAGGCACAUGAGGAUCACCCAUGUCCUUGAGCUCG [jl-bmx4-4.59 Eli mod] (Eterna round: R97, puzzle: Brourd's mod of Exclusion 4)	–	309	50.4	–
AUUAUAUAGUCAGGAUAUAGAAUAUUAUUUUAACAUGAGGAUCACCCAUGUAACCUUAUGUGUAGCUAGAAGGGACAUUUAUUA [Title] (Eterna round: R96, puzzle: Exclusion NG 2)	–	–	–	apparent KD of MS2 coat protein (input ligand: microRNA oligo, concentration not stated): 76.6 nM
AGUGCGUAUGUGAGGAUAUGCUGGUCCUUGGAUCAGCAGAAGGCACAUGAGGAUCACCCAUGUGGUGUCGUACC [salish99_Bmod_Ex4_003] (puzzle: Brourd's mod of Exclusion 4)	180	–	–	–
GCACCGUCAGGAUAUACAUGAGGAUCACCCAUGUGACCACCACUGUUCAUGACGCAUUGUAGAAGGGACGGAAA [Eternabot (L2) Solution 47] (Eterna round: R97, puzzle: Exclusion 3)	–	250	54.7	–
GCCUCACAUGAGGAUCACCCAUGUGAGGAUAUUGAGUUACCAGGCGAACAAGCGACUACGAGAAGGCACGUGGA [Eternabot (L2) Solution 85] (Eterna round: R97, puzzle: Exclusion 1)	–	12	13.9	–
UUGAAGAUAGGAUAUACGAGGAGAGGAGAGAGAAGGUGAGGACAUGAGGAUCACCCAUGUAGAAGGAUCAGGAG [JR_Exclu2_Sub066] (puzzle: Exclusion 2)	86.9	–	–	apparent KD of MS2 coat protein [2]: 66.1 nM; apparent KD of MS2 coat protein [3]: 84.9 nM
GAGUAGUAAGGAUAUGUCUCUGGUGGCUACGGUCACUAGAGGCAGAAGGUACAUGAGGAUCACCCAUGUUUCUC [ExDelusion 9 - Jieux - Exclusion 4] (Eterna round: R97, puzzle: Exclusion 4)	–	83.1	39.2	–
GGACAUAAAGUCAGGAUAUUAAGGCGACCACGCGAUGAGAAGGGACAUGAGGAUCACCCAUGUGAUUCUCAUCA [Ingebive] (Eterna round: R97, puzzle: Brourd's mod of Exclusion 4)	–	74.1	72.6	–
